Publication PMC9250616 (2022)

Biological target: T1, Protective antigen (Bacillus anthracis, UniProt P13423)
T1 chain: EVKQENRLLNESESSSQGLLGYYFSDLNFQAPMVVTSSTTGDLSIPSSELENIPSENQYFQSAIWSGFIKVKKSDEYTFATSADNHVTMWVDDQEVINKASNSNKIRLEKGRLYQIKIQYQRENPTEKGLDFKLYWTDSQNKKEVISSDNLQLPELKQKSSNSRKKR

B1: CMG2 (protein)
chain: QEQPSCRRAFDLYFVLDKSGSVANNWIEIYNFVQQLAERFVSPEMRLSFIVFSSQATIILPLTGDRGKISKGLEDLKRVSPVGETYIHEGLKLANEQIQKAGGLKTSSIIIALTDGKLDGLVPSYAEKEAKISRSLGASVYCVGVLDFEQAQLERIADSKEQVFPVKGGFQALKGIINSILAQSCTEILELQPSSVCVGEEFQIVLSGRGFMLGSRNGSVLCTYTVNETYTTSVKPVSVQLNSMLCPAPILNKAGETLDVSVSFNGGKSVISGSLIVTATECSNG
In the case of B1, the Kd is reported as 0.46 nM.
